Assays:
ActRIIB-huFc (human) [1] = experiment: KinExA
ActRIIB-huFc (human) [2] = experiment: BIAcore
ActRIIB-huFc (human) [3] = experiment: binding affinity, method not stated

ActRIIB-huFc (human), sequence (chain, as listed by the source limits assumed, form in doubt): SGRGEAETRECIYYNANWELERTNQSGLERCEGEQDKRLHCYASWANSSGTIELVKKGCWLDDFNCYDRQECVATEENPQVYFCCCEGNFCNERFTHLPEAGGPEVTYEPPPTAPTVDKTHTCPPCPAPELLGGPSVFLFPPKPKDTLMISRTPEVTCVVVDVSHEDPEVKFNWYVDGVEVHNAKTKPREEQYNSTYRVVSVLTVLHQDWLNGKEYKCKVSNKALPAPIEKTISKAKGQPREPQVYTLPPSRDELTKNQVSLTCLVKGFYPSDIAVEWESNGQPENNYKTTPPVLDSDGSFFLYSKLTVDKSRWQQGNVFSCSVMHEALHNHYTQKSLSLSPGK

| Binder | Kd (ActRIIB-huFc (human) [1]) | fold improvement of affinity over the parental molecule R31-1 (ActRIIB-huFc (human) [1]) | Kd (ActRIIB-huFc (human) [2]) | Kd (ActRIIB-huFc (human) [3]) |
| --- | --- | --- | --- | --- |
| M43 (antibody, human IgG2, lambda, V domains shown) VH: EVQLLESGGGLVQPGGSLRLSCAASGFTFRNSAMSWVRQAPGKGLEWVSGISVTGGSTFYTDSVKGRFTVSRDNSRNTLYLQMNSLRAEDTAVYYCAKVYYYSFFDYWGQGTLVTVSS VL: QTVVTQEPSFSVSPGGTVTLTCGFNSGSVSTSYWPSWYQQTPGQAPRTLIYNTNTRSSGVPDRFSGSILGNKAALTITGAQADDESDYYCVLWMGSGIWVFGGGTKLTVLG | < 1 pM | 10 fold | 1 pM | – |
| Anti-ActRIIB human IgG R31-1 (antibody, V domains shown) VH: EVQLLESGGGLVQPGGSLRLSCAASGFTFRNYAMSWVRQAPGKGLEWVSGISVTGGSTYYTDSVKGRFTVSRDNSRNTLYLQMNSLRAEDTAVYYCAKVYYSSFFDYWGQGTLVTVSS VL: QTVVTQEPSFSVSPGGTVTLTCGFNSGSVSTSYYPSWYQQTPGQAPRTLIYNTNTRSSGVPDRFSGSILGNKAALTITGAQADDESDYYCVLYMGSGIWVFGGGTKLTVLG | – | – | 10 pM | < 10 pM |

— patent publication US20240327526A1
